Drawing on paper PMC10786891, “Massively parallel profiling of RNA-targeting CRISPR-Cas13d”, this text covers Kd for 27 molecules.

First the molecules themselves.
T1: EsCas13d, nuclease-dead (Eubacterium siraeum, UniProt B0MS50, R295A;H300A;R849A;H854A)
T1 sequence: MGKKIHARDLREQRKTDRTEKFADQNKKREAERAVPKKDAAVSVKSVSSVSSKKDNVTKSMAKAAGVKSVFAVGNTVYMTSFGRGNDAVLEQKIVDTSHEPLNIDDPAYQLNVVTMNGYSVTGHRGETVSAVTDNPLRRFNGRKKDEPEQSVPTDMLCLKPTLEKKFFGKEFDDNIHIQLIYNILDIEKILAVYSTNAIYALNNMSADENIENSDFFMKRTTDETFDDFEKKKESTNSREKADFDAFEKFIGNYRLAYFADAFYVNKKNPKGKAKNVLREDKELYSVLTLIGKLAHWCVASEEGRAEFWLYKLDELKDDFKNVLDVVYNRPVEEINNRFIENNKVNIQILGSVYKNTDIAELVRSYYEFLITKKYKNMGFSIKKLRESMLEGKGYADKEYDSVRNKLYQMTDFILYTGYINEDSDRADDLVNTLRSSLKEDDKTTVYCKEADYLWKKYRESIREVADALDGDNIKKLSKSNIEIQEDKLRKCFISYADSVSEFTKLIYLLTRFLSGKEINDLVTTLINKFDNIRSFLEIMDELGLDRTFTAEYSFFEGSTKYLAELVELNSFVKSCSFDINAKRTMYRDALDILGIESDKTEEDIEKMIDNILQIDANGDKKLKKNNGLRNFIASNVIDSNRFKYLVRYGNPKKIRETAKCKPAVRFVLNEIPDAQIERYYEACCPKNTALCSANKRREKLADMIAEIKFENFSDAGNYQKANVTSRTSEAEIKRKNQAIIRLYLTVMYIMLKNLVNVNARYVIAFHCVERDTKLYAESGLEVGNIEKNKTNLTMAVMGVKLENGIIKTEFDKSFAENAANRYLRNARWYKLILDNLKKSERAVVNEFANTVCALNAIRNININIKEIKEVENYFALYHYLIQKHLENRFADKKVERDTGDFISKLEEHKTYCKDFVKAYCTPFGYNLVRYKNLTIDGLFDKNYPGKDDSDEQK

B1: target 2 MT 5'PFS GGU 3'PFS AAG (mixed)
RNA 1: CACCCGUGCAAAAUUGCAGGGGUCUAAAACCUUCUCCAAAUUGUUUCAUCCU
RNA 2: GGGAAUGGAUCCACAUCUACGAAUUCGGUAGGAUGAAACAAUUUGGAGAAGAAGAGAUCGGAAGAGCACACGU
B2: target 2 MT 5'PFS UAG 3'PFS UUU (mixed)
RNA 1: CACCCGUGCAAAAUUGCAGGGGUCUAAAACCUUCUCCAAAUUGUUUCAUCCU
RNA 2: GGGAAUGGAUCCACAUCUACGAAUUCUAGAGGAUGAAACAAUUUGGAGAAGUUUAGAUCGGAAGAGCACACGU
B3: target 2 MT 5'PFS GCU 3'PFS CUC (mixed)
RNA 1: CACCCGUGCAAAAUUGCAGGGGUCUAAAACCUUCUCCAAAUUGUUUCAUCCU
RNA 2: GGGAAUGGAUCCACAUCUACGAAUUCGCUAGGAUGAAACAAUUUGGAGAAGCUCAGAUCGGAAGAGCACACGU
B4: target 2 MT 5'PFS CGG 3'PFS AGC (mixed)
RNA 1: CACCCGUGCAAAAUUGCAGGGGUCUAAAACCUUCUCCAAAUUGUUUCAUCCU
RNA 2: GGGAAUGGAUCCACAUCUACGAAUUCCGGAGGAUGAAACAAUUUGGAGAAGAGCAGAUCGGAAGAGCACACGU
B5: target 2 MT 5'PFS GUA 3'PFS AGG (mixed)
RNA 1: CACCCGUGCAAAAUUGCAGGGGUCUAAAACCUUCUCCAAAUUGUUUCAUCCU
RNA 2: GGGAAUGGAUCCACAUCUACGAAUUCGUAAGGAUGAAACAAUUUGGAGAAGAGGAGAUCGGAAGAGCACACGU
B6: target 2 MT 5'PFS CGG 3'PFS AGA (mixed)
RNA 1: CACCCGUGCAAAAUUGCAGGGGUCUAAAACCUUCUCCAAAUUGUUUCAUCCU
RNA 2: GGGAAUGGAUCCACAUCUACGAAUUCCGGAGGAUGAAACAAUUUGGAGAAGAGAAGAUCGGAAGAGCACACGU
B7: target 2 MT 5'PFS UAG 3'PFS UCG (mixed)
RNA 1: CACCCGUGCAAAAUUGCAGGGGUCUAAAACCUUCUCCAAAUUGUUUCAUCCU
RNA 2: GGGAAUGGAUCCACAUCUACGAAUUCUAGAGGAUGAAACAAUUUGGAGAAGUCGAGAUCGGAAGAGCACACGU
B8: target 2 MT 5'PFS CGG 3'PFS AGG (mixed)
RNA 1: CACCCGUGCAAAAUUGCAGGGGUCUAAAACCUUCUCCAAAUUGUUUCAUCCU
RNA 2: GGGAAUGGAUCCACAUCUACGAAUUCCGGAGGAUGAAACAAUUUGGAGAAGAGGAGAUCGGAAGAGCACACGU
B9: target 2 MT 5'PFS CUC 3'PFS ACA (mixed)
RNA 1: CACCCGUGCAAAAUUGCAGGGGUCUAAAACCUUCUCCAAAUUGUUUCAUCCU
RNA 2: GGGAAUGGAUCCACAUCUACGAAUUCCUCAGGAUGAAACAAUUUGGAGAAGACAAGAUCGGAAGAGCACACGU
B10: target 2 MT 5'PFS GGU 3'PFS AAC (mixed)
RNA 1: CACCCGUGCAAAAUUGCAGGGGUCUAAAACCUUCUCCAAAUUGUUUCAUCCU
RNA 2: GGGAAUGGAUCCACAUCUACGAAUUCGGUAGGAUGAAACAAUUUGGAGAAGAACAGAUCGGAAGAGCACACGU
B11: target 2 MT 5'PFS UCU 3'PFS CAA (mixed)
RNA 1: CACCCGUGCAAAAUUGCAGGGGUCUAAAACCUUCUCCAAAUUGUUUCAUCCU
RNA 2: GGGAAUGGAUCCACAUCUACGAAUUCUCUAGGAUGAAACAAUUUGGAGAAGCAAAGAUCGGAAGAGCACACGU
B12: target 2 MT 5'PFS UCU 3'PFS CAG (mixed)
RNA 1: CACCCGUGCAAAAUUGCAGGGGUCUAAAACCUUCUCCAAAUUGUUUCAUCCU
RNA 2: GGGAAUGGAUCCACAUCUACGAAUUCUCUAGGAUGAAACAAUUUGGAGAAGCAGAGAUCGGAAGAGCACACGU
B13: target 2 MT 5'PFS CUC 3'PFS ACC (mixed)
RNA 1: CACCCGUGCAAAAUUGCAGGGGUCUAAAACCUUCUCCAAAUUGUUUCAUCCU
RNA 2: GGGAAUGGAUCCACAUCUACGAAUUCCUCAGGAUGAAACAAUUUGGAGAAGACCAGAUCGGAAGAGCACACGU
B14: target 2 MT 5'PFS UCA 3'PFS AAU (mixed)
RNA 1: CACCCGUGCAAAAUUGCAGGGGUCUAAAACCUUCUCCAAAUUGUUUCAUCCU
RNA 2: GGGAAUGGAUCCACAUCUACGAAUUCUCAAGGAUGAAACAAUUUGGAGAAGAAUAGAUCGGAAGAGCACACGU
B15: target 2 MT 5'PFS CAC 3'PFS UCC (mixed)
RNA 1: CACCCGUGCAAAAUUGCAGGGGUCUAAAACCUUCUCCAAAUUGUUUCAUCCU
RNA 2: GGGAAUGGAUCCACAUCUACGAAUUCCACAGGAUGAAACAAUUUGGAGAAGUCCAGAUCGGAAGAGCACACGU
B16: target 2 MT 5'PFS CAC 3'PFS UCU (mixed)
RNA 1: CACCCGUGCAAAAUUGCAGGGGUCUAAAACCUUCUCCAAAUUGUUUCAUCCU
RNA 2: GGGAAUGGAUCCACAUCUACGAAUUCCACAGGAUGAAACAAUUUGGAGAAGUCUAGAUCGGAAGAGCACACGU
B17: target 2 MT 5'PFS CAC 3'PFS UCG (mixed)
RNA 1: CACCCGUGCAAAAUUGCAGGGGUCUAAAACCUUCUCCAAAUUGUUUCAUCCU
RNA 2: GGGAAUGGAUCCACAUCUACGAAUUCCACAGGAUGAAACAAUUUGGAGAAGUCGAGAUCGGAAGAGCACACGU
B18: target 2 MT 5'PFS AGG 3'PFS UAC (mixed)
RNA 1: CACCCGUGCAAAAUUGCAGGGGUCUAAAACCUUCUCCAAAUUGUUUCAUCCU
RNA 2: GGGAAUGGAUCCACAUCUACGAAUUCAGGAGGAUGAAACAAUUUGGAGAAGUACAGAUCGGAAGAGCACACGU
B19: target 2 MT 5'PFS GGU 3'PFS AAA (mixed)
RNA 1: CACCCGUGCAAAAUUGCAGGGGUCUAAAACCUUCUCCAAAUUGUUUCAUCCU
RNA 2: GGGAAUGGAUCCACAUCUACGAAUUCGGUAGGAUGAAACAAUUUGGAGAAGAAAAGAUCGGAAGAGCACACGU
B20: target 2 MT 5'PFS AGG 3'PFS AAC (mixed)
RNA 1: CACCCGUGCAAAAUUGCAGGGGUCUAAAACCUUCUCCAAAUUGUUUCAUCCU
RNA 2: GGGAAUGGAUCCACAUCUACGAAUUCAGGAGGAUGAAACAAUUUGGAGAAGAACAGAUCGGAAGAGCACACGU
B21: target 2 MT 5'PFS UGG 3'PFS CCA (mixed)
RNA 1: CACCCGUGCAAAAUUGCAGGGGUCUAAAACCUUCUCCAAAUUGUUUCAUCCU
RNA 2: GGGAAUGGAUCCACAUCUACGAAUUCUGGAGGAUGAAACAAUUUGGAGAAGCCAAGAUCGGAAGAGCACACGU
B22: target 2 MT 5'PFS CUC 3'PFS ACG (mixed)
RNA 1: CACCCGUGCAAAAUUGCAGGGGUCUAAAACCUUCUCCAAAUUGUUUCAUCCU
RNA 2: GGGAAUGGAUCCACAUCUACGAAUUCCUCAGGAUGAAACAAUUUGGAGAAGACGAGAUCGGAAGAGCACACGU
B23: target 2 MT 5'PFS AGG 3'PFS AAU (mixed)
RNA 1: CACCCGUGCAAAAUUGCAGGGGUCUAAAACCUUCUCCAAAUUGUUUCAUCCU
RNA 2: GGGAAUGGAUCCACAUCUACGAAUUCAGGAGGAUGAAACAAUUUGGAGAAGAAUAGAUCGGAAGAGCACACGU
B24: target 2 MT 5'PFS CAC 3'PFS UCA (mixed)
RNA 1: CACCCGUGCAAAAUUGCAGGGGUCUAAAACCUUCUCCAAAUUGUUUCAUCCU
RNA 2: GGGAAUGGAUCCACAUCUACGAAUUCCACAGGAUGAAACAAUUUGGAGAAGUCAAGAUCGGAAGAGCACACGU
B25: target 2 MT 5'PFS UGG 3'PFS CCU (mixed)
RNA 1: CACCCGUGCAAAAUUGCAGGGGUCUAAAACCUUCUCCAAAUUGUUUCAUCCU
RNA 2: GGGAAUGGAUCCACAUCUACGAAUUCUGGAGGAUGAAACAAUUUGGAGAAGCCUAGAUCGGAAGAGCACACGU
B26: target 1 A20C,C22U (mixed)
RNA 1: CACCCGUGCAAAAAUGCAGGGGUCUAAAACUGAGCGGAUAACCUCUCUAUGG
RNA 2: GGGAAUGGAUCCACAUCUACGAAUUCGUAUCCUAGAGAGGUUAUCCGCUCACCGAGAUCGGAAGAGCACACGU
B27: target 1 insG 3' of 7,insG 3' of 2 (mixed)
RNA 1: CACCCGUGCAAAAAUGCAGGGGUCUAAAACUGAGCGGAUAACCUCUCUAUGG
RNA 2: GGGAAUGGAUCCACAUCUACGAAUUCGUACCAUAGAGAGGUUAUCGCGCUCGACCGAGAUCGGAAGAGCACACGU

As usually defined, the Kd is the equilibrium constant for the complex coming apart.

The target of the data set is T1, EsCas13d, nuclease-dead. The experiment in a line: crRNA (strand 1, pre-loaded); Mg2+; 40 mM Tris-HCl pH 7.5, 150 mM NaCl, 6 mM MgCl2, 1 mM DTT, 0.1% Tween-20, 0.2 mg/ml BSA; 25 C; 10 min per concentration, then washed. To be noted: tags: His6-TwinStrep-SUMO cleaved; N-terminal SNAP kept (SNAP-Surface 488); label: 3' end held by stalled T7 RNA polymerase.
Consider B1, for which the Kd came out at 12.7 ± 1.2 nM.
B2 returned a Kd of 6.5 ± 0.7 nM. Against the preceding molecule, the Kd is about 2-fold lower.
With B3 the figure was 24 ± 8 nM; with B4, 4.7 ± 0.9 nM.
For B5 the value was 8.6 ± 0.6 nM; for B6, 4.1 ± 0.7 nM; for B7, 4.1 ± 0.5 nM.
B8: binding was put at a Kd of 4.5 ± 0.5 nM.
Turning to B9, the Kd is 3.1 ± 1.4 nM.
Regarding B10, binding was characterised by a dissociation constant (Kd) of 13.4 ± 1.4 nM.
B11 came in with a Kd of 10.5 ± 2.1 nM.
In turn, B12 gave a Kd of 7.6 ± 1.1 nM.
As for B13, the Kd is 2.3 ± 0.4 nM.
In the case of B14, the Kd turned out to be 5.2 ± 0.7 nM.
The molecule B15 gave a Kd of 4.9 ± 0.7 nM.
The molecule B16 registered a Kd of 4.7 ± 0.6 nM.
For B17, binding was put at a Kd of 3.9 ± 0.8 nM.
For B18 the value was 7.3 ± 1.2 nM; for B19, 7.1 ± 1 nM.
With B20 the figure was 8.5 ± 1.7 nM.
On to B21, for which the Kd stood at 15.3 ± 3.1 nM.
For B22 the value was 1.68 ± 0.18 nM; for B23, 4.7 ± 0.9 nM.
For B24 the value was 4.1 ± 0.6 nM; for B25, 68 ± 33 nM.
For the molecule B26, binding was characterised by a dissociation constant (Kd) of 49 ± 6 nM.
Molecule B27 returned a Kd of 6.9 ± 0.4 nM.
